Results taken from patent US20050142135A1, “Agents and methods for modulating interactions between gonadotropin hormones and receptors” (University of Kentucky Research Foundation, priority 2003, published 2005).
Changes are numbered by the printed parent chain.

B1: L^27A: human FSHR with Ala substituted for L27 (protein)
chain: CHHRICHCSNRVFLCQESKVTEIPSDAPRNAIELRFVLTKLRVIQKGAFSGFGDLEKIEISQNDVLEVIEADVFSNLPKLHEIRIEKANNLLYINPEAFQNLPNLQYLLISNTGIKHLPDVHKIHSLQKVLLDIQDNINIHTIERNSFVGLSFESVILWLNKNGIQEIHNCAFNGTQLDELNLSDNNNLEELPNDVFHGASGPVILDISRTRIHSLPSYGLENLKKLRARSTYNLKKLPTLEKLVALMEASLTYPSHCCAFANWRRQISELHPICNKSILRQEVDYMTQARGQRSSLAEDNESSYSRGFDMTYTEFDYDLCNEVVDVTCSPKPDAFNPCEDIMGYNILRVLIWFISILAITGNIIVLVILTTSQYKLTVPRFLMCNLAFADLCIGIYLLLIASVDIHTKSQYHNYAIDWQTGAGCDAAGFFTVFASELSVYTLTAITLERWHTITHAMQLDCKVQLRHAASVMVMGWIFAFAAALFPIFGISSYMKVSICLPMDIDSPLSQLYVMSLLVLNVLAFVVICGCYIHIYLTVRNPNIVSSSSDTRIAKRMAMLIFTDFLCMAPISFFAISASLKVPLITVSKAKILLVLFHPINSCANPFLYAIFTKNFRRDFFILLSKCGCYEMQAQIYRTETSSTVHNTHPRNGHCSSAPRVTSGSTYILVPLSHLAQN
B2: C^15A: human FSHR with Ala substituted for C15 (protein)
chain: B1 chain with C15A, A27L
B3: L^583 Y: human FSHR mutant, Tyr for L583 (protein)
chain: B1 chain with A27L, L584Y
B4: wild type: wild type human FSH receptor expressed in HEK 293 cells (protein)
chain: B1 chain with A27L

Legend:
FSHR = test: ^125I-FSH binding to solubilized FSHR (NP-40); parameters: species or system human; settings: solubilized mutant receptors
Description: Transfected cells were washed twice with ice cold 150 mM NaCl, 20 mM HEPES, pH 7.4 (buffer A). Cells were scraped on ice, collected in buffer A containing protease inhibitors (1 mM phenylmethylsulfonyl fluoride, 5 mM N-ethylmaleimide, and 10 mM EDTA), and pelleted by centrifugation at 1300×g for 10 minutes. Cells were resuspended in 0.6 ml of buffer A containing 1% NP-40, 20% glycerol, and the above protease inhibitors (buffer B), incubated on ice for 15 mm, and diluted with 5.4 ml of buffer A containing 20% glycerol plus the protease inhibitors (buffer C). The mixture was centrifuged at 100,000×g for 60 minutes. […] After incubation for 12 hours at 4° C., the solution was thoroughly mixed with 250 μl of buffer A containing bovine γ-globulin (5 μg/ml) and 750 μl of buffer A containing 20% polyethylene glycol 8000. After incubation for 10 minutes at 4° C., samples were pelleted at 1300×g for 30 mm and supernatants removed. Pellets were resuspended in 1.5 ml of buffer A containing 20% polyethylene glycol 8000, centrifuged, and counted for radioactivity.

human FSHR [1] = test: ^125I-FSH binding to wild type and mutant FSH receptors on intact stably transfected HEK 293 cells; settings: for FSH binding / Kd compared with the wild type receptor, in words: intact HEK 293 cells
Description: (§1) Mutant FSHR cDNAs were prepared in the pSELECT vector using the Altered Sites Mutagenesis system (Promega), sequenced on a Beckman CEQ 2000XL capillary sequencer, subcloned into pcDNA3 (Invitrogen), and sequenced again to verify mutation sequences. […] Wild type and mutant receptor constructs were transfected into HEK 293 cells by the calcium phosphate method as previously described. Stable cell lines were established in minimum essential medium containing 10% horse serum and 500 μg/ml of G418. These cells were used for hormone binding, cAMP production. All assays were carried out in duplicate and repeated 4-5 times, and means±S.D. were calculated.
(§2) The Kd values were determined by Scatchard plots. For intracellular cAMP assay, cells were washed twice with Dulbecco's modified Eagle's medium and incubated in the medium containing 0.1 μg/ml isobutylmethylxanthine for 15 mm. Increasing concentrations of FSH were then added and incubation was continued for 45 mm at 37° C. After removing the medium, the cells were rinsed once with fresh medium without isobutylmethylxanthine, lysed in 70% ethanol, freeze-thawed in liquid nitrogen, and scraped.
Each mutant human FSHR cDNA was prepared in a pSELECT vector using the non-PCR based Altered Sites Mutagenesis System (Promega), sequenced on a Beckman CEQ 2000XL capillary sequencer and subcloned into pcDNA3 (Invitrogen) as described. After subcloning pcDNA3 the mutant cDNAs were sequenced again. Plasmids were transfected into human embryonic kidney (HEK) 293 cells by the calcium phosphate method. Stable cell lines were established in minimum essential medium containing 10% horse serum and 500 μg/ml of G-418, and then used for hormone binding and cAMP assay. All assays were carried out in duplicate and repeated 4-6 times. Means and standard variations were calculated.
(§3) Human FSH (the National Hormone and Pituitary Program) was radioiodinated as previously described for radioiodination of hCG. […] The Kd values were determined by Scatchard plots. Truncated exodomain was solubilized in Nonidet P-40 and assayed for hormone binding as described previously. For intracellular cAMP assay, cells were washed twice with Dulbecco's modified Eagle's media and incubated in the media containing isobutylmethylxanthine (0.1 mg/ml) for 15 minutes. Increasing concentrations of FSH were then added and the incubation was continued for 45 minutes at 37° C. After removing the media, the cells were rinsed once with fresh media without isobutylmethylxanthine, lysed in 70% ethanol, freeze-thawed in liquid nitrogen, and scraped. […] Exoloop 3 of FSHR was modeled based on the crystal structure of rhodopsin as a template.

human FSHR [2] = test: FSH dependent intracellular cAMP assay, wild type and mutant FSHR in HEK 293 cells; format: cell-based; settings: HEK 293 cells
Description: as §1, §2, §3

human FSHR [3] = test: Inositol phosphate assay, FSHR exoloop 3 mutants in HEK 293 cells, FSH stimulated; format: cell-based; settings: for IPt (CPM): total IP production in response to increasing concentrations of FSH, NS = not significant
Description: Stable cells were plated in 12 well plates and grown in inositol free DMEM (Atlanta Biologicals) supplemented with 8% heat-inactivated horse serum and 2 μCi/ml ^3H-inositol (N EN) for 48 h to 40-50% confluency. After removing the medium, the cells were incubated in 1 ml of fresh wash buffer consisting of DMEM without inositol and 15 mM HEPES (pH 7.3) for 1 hour at 37° C. This medium was removed and 0.3 ml wash buffer containing 20 mM LiCl was added and incubated for 15 minutes at 37° C. After the cells were stimulated with increasing concentrations of hormone for 30 minutes at 37° C., the incubation was terminated by the removal of medium and the addition of 0.25 ml of 0.6 N HCl to each well. The cells were scraped and transferred into microcentrifuge tubes, and the wells were again washed with 0.25 ml of 0.6 N HCl. The combined washes were treated with 0.9 ml of a mixture of chloroform:methanol (2:1), vortexed and centrifuged at 1000×g for 5 minutes at room temperature. The top aqueous layer, which was free of phospholipids, was removed and the remaining chloroform layer treated with 0.2 ml of methanol:water (1:1), vortexed and centrifuged. This aqueous layer was added to the previous aqueous layer and the samples dried in a vacuum concentrator. The dried samples were redissolved in 0.5 ml of 50 mM Tris-HCl, pH 8 and applied to Dowex AG 1-X8 formate (BIO-RAD) columns. The microcentrifuge tubes were washed twice with 0.5 ml of the same buffer and the washes applied to the columns for a total of 1.5 ml. The columns were sequentially washed with 4.5 ml H2O and 4.5 ml 60 mM ammonium formate and 5 mM sodium tetraborate to elute the free inositol and the glycerol phosphoinositol. IP1, IP2 and IP3 were sequentially eluted with 4 ml of 0.1 N formic acid in 0.2 M, 0.75 M ammonium formate and 1.1 M ammonium formate, respectively and collected in 1 ml fractions. Aliquots of 200 μl were counted for radioactivity in 1.5 ml of Ultima AF scintillation fluid (Packard). Peak radioactivities were used for the data analysis.
Target sequence in this assay (P23945 18-366 limits assumed): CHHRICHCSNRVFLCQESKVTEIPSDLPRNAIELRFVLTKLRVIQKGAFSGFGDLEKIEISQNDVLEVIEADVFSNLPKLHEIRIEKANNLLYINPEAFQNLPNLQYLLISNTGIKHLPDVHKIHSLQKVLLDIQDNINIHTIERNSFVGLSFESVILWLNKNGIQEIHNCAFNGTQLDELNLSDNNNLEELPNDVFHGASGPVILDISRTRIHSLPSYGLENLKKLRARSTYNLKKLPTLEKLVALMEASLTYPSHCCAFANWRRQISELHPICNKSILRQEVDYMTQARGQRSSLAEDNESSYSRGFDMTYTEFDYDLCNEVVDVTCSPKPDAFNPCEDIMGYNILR

Molecule	FSH binding to receptors solubilized in NP-40 (FSHR)	FSH binding / Kd compared with the wild type receptor, in words (human FSHR [1])	FSH dependent cAMP induction / EC50 compared with the wild type receptor, in words (human FSHR [2])	IP induction (IP1, IP2, IP3, IPt) in response to FSH, in words (human FSHR [3]; HEK 293 cells)	IPt (CPM) (human FSHR [3])	Kd (human FSHR [1]; ^125I-FSH binding, Scatchard plots, HEK 293 cells) [nM]
B1	did not bind	completely abrogated hormone binding				
B2	did not bind	abolished hormone binding				
B3			induced significant amounts of cAMP with reasonable EC50 values	produced a small amount of IPt	440 ± 17 CPM	
B4					1,660 ± 240 CPM	4
